Results reported in doi:10.1101/2023.02.02.526371.

T1: PIF3-GST (Arabidopsis thaliana, UniProt O80536 1-524)
T1 sequence: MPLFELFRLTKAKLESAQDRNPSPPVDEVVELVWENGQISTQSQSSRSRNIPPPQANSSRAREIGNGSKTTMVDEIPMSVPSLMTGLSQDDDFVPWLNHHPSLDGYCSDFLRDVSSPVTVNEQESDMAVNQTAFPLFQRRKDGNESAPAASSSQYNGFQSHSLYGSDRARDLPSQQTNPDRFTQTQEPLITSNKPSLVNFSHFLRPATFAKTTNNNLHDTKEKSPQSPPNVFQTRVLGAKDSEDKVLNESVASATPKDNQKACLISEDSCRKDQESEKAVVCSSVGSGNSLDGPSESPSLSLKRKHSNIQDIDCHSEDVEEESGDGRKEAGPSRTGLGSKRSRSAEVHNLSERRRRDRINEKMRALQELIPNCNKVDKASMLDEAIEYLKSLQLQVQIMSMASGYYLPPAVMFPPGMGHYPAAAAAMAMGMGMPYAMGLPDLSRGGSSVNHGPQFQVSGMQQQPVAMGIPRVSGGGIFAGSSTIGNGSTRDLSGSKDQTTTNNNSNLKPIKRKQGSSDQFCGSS


Biological target: T1, PIF3-GST
Experiment: EMSA

Binder | binding result
PIEZO promoter probe 1 (dsDNA) DNA 1: CCTAGAACTAAACACATGAGCCTCCTTCTT DNA 2: AAGAAGGAGGCTCATGTGTTTAGTTCTAGG | binds
PIEZO promoter probe 2 (dsDNA) DNA 1: ATCCAAATGGACCACATGCCCATCAACCTCCAT DNA 2: ATGGAGGTTGATGGGCATGTGGTCCATTTGGAT | binds
